{"source": "paper PMC3402383", "key": {"[1]": {"biological_target": "human complement protein C3b (human) (UniProt P01024)", "sequence (P01024 23-667, chain 1 of 2)": "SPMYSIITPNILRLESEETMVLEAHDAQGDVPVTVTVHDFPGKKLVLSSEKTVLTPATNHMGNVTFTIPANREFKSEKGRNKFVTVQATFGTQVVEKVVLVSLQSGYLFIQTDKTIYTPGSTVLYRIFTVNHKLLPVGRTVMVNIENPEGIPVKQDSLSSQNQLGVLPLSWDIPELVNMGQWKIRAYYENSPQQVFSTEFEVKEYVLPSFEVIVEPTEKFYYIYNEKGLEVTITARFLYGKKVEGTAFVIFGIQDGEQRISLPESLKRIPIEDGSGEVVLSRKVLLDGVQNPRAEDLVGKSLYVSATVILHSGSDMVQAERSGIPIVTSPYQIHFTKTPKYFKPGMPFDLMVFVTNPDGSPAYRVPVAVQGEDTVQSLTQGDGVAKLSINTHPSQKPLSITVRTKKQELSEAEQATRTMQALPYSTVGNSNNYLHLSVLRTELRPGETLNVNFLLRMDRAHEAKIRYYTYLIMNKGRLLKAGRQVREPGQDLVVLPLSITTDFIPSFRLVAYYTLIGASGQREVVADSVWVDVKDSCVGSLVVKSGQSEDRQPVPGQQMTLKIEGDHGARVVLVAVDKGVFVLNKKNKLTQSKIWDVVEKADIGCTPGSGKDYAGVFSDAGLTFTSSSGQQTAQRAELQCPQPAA", "sequence (P01024 749-1663, chain 2 of 2)": "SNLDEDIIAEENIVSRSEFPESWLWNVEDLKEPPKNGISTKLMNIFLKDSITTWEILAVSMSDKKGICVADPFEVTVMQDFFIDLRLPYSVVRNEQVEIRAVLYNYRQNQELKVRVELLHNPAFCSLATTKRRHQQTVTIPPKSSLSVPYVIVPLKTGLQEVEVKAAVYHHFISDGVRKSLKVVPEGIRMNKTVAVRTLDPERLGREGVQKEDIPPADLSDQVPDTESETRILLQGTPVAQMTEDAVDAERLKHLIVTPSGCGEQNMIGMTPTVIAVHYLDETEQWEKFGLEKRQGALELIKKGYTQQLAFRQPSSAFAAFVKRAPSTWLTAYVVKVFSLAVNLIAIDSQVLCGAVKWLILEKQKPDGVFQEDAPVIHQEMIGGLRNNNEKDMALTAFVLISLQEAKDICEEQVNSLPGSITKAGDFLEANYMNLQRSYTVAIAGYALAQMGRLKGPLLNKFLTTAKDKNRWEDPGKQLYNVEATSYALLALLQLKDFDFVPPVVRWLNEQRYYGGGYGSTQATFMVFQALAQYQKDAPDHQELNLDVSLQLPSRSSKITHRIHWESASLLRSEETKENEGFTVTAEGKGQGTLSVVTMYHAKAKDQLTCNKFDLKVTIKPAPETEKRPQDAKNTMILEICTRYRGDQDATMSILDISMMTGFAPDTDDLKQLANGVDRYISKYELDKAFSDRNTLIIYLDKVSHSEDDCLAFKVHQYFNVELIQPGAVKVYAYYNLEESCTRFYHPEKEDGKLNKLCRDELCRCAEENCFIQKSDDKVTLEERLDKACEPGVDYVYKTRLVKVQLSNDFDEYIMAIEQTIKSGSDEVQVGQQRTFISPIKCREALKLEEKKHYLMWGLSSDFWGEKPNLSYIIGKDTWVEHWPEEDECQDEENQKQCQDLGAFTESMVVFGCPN", "assay": "ELISA; C3b or C4b (1 µg) immobilised in microtiter wells in PBS pH 7.2; up to 1 µM His-tagged Lig protein in 2% BSA-PBS pH 7.2, 37°C, 1 h; detected with anti-His antibody; apparent Kd = concentration of LigB that gives half-maximal binding"}, "[2]": {"biological_target": "human complement protein C4b (human) (UniProt P0C0L4)", "sequence (P0C0L4 20-675, chain 1 of 3)": "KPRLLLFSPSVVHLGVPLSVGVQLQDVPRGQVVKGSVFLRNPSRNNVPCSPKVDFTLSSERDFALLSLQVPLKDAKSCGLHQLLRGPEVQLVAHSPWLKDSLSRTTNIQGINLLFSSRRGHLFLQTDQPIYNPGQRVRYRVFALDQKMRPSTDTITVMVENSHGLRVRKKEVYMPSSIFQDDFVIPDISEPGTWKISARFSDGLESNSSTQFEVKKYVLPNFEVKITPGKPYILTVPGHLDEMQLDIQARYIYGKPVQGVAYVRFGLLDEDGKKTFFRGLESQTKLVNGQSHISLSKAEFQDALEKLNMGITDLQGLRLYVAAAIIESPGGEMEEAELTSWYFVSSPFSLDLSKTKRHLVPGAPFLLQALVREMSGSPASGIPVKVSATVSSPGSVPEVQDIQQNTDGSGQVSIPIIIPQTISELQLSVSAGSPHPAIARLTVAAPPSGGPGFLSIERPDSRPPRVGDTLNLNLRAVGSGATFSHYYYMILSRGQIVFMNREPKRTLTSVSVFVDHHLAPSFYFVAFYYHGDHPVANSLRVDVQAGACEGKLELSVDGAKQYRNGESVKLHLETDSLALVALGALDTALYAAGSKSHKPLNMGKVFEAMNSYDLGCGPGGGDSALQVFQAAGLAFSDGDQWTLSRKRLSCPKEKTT", "sequence (P0C0L4 757-1446, chain 2 of 3)": "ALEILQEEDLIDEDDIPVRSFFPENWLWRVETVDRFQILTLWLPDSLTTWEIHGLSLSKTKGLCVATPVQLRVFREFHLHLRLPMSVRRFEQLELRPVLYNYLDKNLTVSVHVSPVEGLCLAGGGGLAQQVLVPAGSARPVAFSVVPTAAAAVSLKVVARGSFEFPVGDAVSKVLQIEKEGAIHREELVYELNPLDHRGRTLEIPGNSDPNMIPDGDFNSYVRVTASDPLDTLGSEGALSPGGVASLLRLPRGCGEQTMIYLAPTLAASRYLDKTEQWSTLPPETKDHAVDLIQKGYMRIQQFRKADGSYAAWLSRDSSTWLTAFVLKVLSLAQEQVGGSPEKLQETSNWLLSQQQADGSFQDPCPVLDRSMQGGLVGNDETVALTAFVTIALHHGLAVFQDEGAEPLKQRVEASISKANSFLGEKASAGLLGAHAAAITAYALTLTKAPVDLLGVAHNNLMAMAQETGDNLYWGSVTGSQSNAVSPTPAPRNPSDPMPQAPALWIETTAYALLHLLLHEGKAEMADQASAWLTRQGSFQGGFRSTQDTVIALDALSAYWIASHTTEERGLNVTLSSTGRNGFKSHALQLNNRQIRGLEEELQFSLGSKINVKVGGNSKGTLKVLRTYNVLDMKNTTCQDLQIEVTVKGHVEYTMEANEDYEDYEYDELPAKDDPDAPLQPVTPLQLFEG", "sequence (P0C0L4 1454-1744, chain 3 of 3)": "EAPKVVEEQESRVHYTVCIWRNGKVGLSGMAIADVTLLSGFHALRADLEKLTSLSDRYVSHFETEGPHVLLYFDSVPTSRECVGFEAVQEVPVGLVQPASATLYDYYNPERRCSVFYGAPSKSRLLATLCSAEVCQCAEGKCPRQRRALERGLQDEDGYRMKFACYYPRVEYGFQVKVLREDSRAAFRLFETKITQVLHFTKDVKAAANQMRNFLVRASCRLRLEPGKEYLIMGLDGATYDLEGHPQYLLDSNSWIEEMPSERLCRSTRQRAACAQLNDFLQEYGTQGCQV", "assay": "ELISA; C3b or C4b (1 µg) immobilised in microtiter wells in PBS pH 7.2; up to 1 µM His-tagged Lig protein in 2% BSA-PBS pH 7.2, 37°C, 1 h; detected with anti-His antibody; apparent Kd = concentration of LigB that gives half-maximal binding"}, "[3]": {"biological_target": "human complement protein C4b (human) (UniProt P0C0L4)"}, "[4]": {"biological_target": "human complement protein C3b (human) (UniProt P01024)", "conditions": "scale: % of complement activity in untreated serum"}}}
{"substance": "LigB7′-12 (from UniProt C0J1Q6 1-1889) (domain or fragment)", "values": [{"measurement": "Kd", "setting": "[1]", "value": 43, "unit": "nM"}, {"measurement": "Kd", "setting": "[2]", "value": 69, "unit": "nM"}]}
{"substance": "LigB8-12 (domain or fragment)", "values": [{"measurement": "complement-mediated hemolysis of antibody-sensitized sheep erythrocytes (classical pathway) after preincubation of normal human serum with the protein, as % of untreated serum (% of untreated serum)", "setting": "[3]", "value": 71.4}, {"measurement": "complement-mediated hemolysis of rabbit erythrocytes (alternative pathway) after preincubation of normal human serum with the protein, as % of complement activity in untreated serum", "setting": "[4]", "value": 38.9}]}
{"substance": "LigB9-11 (domain or fragment)", "values": [{"measurement": "complement-mediated hemolysis of antibody-sensitized sheep erythrocytes (classical pathway) after preincubation of normal human serum with the protein, as % of untreated serum (% of untreated serum)", "setting": "[3]", "value": 64}, {"measurement": "Kd", "setting": "[1]", "value": 69, "unit": "nM"}, {"measurement": "Kd", "setting": "[2]", "value": 67, "unit": "nM"}, {"measurement": "complement-mediated hemolysis of rabbit erythrocytes (alternative pathway) after preincubation of normal human serum with the protein, as % of complement activity in untreated serum", "setting": "[4]", "value": 57.8}]}
{"substance": "LigB9-12 (domain or fragment)", "values": [{"measurement": "Kd", "setting": "[1]", "value": 69, "unit": "nM"}, {"measurement": "Kd", "setting": "[2]", "value": 57, "unit": "nM"}]}
